Patent US20160139137

Columns and labels:
[1] = test system: T1, In-active peptide (NH2-Cys-Lys-Pro-Val-Lys-TAMRA, SEC ID NO: 3)
T1 sequence: CKPVK

[2] = test system: T2, Pro-active peptide (NH2-Cys-Lys-Arg-Val-Lys-TAMRA, SEQ ID NO: 2)
T2 sequence: CKRVK

Substance: Trypsin (13.000-20.000 units/mg)
- fluorescence emission spectra of the one-colour QD540@SiO2 system after incubation with trypsin [1]: the control sample with the “in-active” QD540@SiO2 system, as expected, did not show any significant change in the fluorescence emission
- fluorescence emission of QD660@SiO2@QD540@SiO2 nanoparticles at 25 µg/L versus 350 µg/L trypsin [2]: Increasing the enzyme concentration led to faster recovery of the original emission at 540 nm
- fluorescence emission spectra of the one-colour QD540@SiO2 system after incubation with trypsin (loss of FRET on peptide cleavage) [2]: The spectroscopic profiles further demonstrated the existence of FRET processes between the QD540@SiO2 nanospheres and the “pro-active” TAMRA-labelled peptide
- ratio of PL emission peaks I540/I660 during enzymatic digestion for 120 minutes at 25-350 µg/L trypsin [2]: There was a direct relationship between the enzymatic digestion rate and the enzyme concentration
